# Test results from paper PMC8038994, “RNA and DNA G-quadruplexes bind to human dicer and inhibit its activity”.
# T1: hDicer PPC cassette (Homo sapiens, UniProt Q9UPY3 753-1068)
# T1 sequence: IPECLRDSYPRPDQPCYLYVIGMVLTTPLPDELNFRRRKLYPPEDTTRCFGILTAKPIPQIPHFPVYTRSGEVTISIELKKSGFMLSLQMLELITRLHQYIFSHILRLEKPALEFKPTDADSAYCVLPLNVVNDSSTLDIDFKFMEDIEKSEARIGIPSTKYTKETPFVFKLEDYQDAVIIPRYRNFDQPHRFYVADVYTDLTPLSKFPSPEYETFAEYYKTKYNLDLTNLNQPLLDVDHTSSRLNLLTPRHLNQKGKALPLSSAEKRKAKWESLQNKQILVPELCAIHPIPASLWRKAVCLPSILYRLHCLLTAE
# B1: pre-mir-21 (structured_RNA)
# RNA: AGCUUAUCAGACUGAUGUUGACUGUUGAAUCUCAUGGCAACACCAGUCGAUGGGCUGU
# How the values were obtained:
# hDicer [1] = molecular target: T2, hDicer (Homo sapiens, UniProt Q9UPY3 1-1922); test: EMSA; 100, 250 nM hDicer; EMSA: 20 mM Tris-HCl pH 7.4, 100 mM KCl, 30 min on ice; 5% or 10% native PAGE at 4 C in 1x TBE; G-rich oligos folded in 50 mM KCl; details: protein: recombinant; label: 5'-32P; G4
# T2 sequence (Q9UPY3 whole entry): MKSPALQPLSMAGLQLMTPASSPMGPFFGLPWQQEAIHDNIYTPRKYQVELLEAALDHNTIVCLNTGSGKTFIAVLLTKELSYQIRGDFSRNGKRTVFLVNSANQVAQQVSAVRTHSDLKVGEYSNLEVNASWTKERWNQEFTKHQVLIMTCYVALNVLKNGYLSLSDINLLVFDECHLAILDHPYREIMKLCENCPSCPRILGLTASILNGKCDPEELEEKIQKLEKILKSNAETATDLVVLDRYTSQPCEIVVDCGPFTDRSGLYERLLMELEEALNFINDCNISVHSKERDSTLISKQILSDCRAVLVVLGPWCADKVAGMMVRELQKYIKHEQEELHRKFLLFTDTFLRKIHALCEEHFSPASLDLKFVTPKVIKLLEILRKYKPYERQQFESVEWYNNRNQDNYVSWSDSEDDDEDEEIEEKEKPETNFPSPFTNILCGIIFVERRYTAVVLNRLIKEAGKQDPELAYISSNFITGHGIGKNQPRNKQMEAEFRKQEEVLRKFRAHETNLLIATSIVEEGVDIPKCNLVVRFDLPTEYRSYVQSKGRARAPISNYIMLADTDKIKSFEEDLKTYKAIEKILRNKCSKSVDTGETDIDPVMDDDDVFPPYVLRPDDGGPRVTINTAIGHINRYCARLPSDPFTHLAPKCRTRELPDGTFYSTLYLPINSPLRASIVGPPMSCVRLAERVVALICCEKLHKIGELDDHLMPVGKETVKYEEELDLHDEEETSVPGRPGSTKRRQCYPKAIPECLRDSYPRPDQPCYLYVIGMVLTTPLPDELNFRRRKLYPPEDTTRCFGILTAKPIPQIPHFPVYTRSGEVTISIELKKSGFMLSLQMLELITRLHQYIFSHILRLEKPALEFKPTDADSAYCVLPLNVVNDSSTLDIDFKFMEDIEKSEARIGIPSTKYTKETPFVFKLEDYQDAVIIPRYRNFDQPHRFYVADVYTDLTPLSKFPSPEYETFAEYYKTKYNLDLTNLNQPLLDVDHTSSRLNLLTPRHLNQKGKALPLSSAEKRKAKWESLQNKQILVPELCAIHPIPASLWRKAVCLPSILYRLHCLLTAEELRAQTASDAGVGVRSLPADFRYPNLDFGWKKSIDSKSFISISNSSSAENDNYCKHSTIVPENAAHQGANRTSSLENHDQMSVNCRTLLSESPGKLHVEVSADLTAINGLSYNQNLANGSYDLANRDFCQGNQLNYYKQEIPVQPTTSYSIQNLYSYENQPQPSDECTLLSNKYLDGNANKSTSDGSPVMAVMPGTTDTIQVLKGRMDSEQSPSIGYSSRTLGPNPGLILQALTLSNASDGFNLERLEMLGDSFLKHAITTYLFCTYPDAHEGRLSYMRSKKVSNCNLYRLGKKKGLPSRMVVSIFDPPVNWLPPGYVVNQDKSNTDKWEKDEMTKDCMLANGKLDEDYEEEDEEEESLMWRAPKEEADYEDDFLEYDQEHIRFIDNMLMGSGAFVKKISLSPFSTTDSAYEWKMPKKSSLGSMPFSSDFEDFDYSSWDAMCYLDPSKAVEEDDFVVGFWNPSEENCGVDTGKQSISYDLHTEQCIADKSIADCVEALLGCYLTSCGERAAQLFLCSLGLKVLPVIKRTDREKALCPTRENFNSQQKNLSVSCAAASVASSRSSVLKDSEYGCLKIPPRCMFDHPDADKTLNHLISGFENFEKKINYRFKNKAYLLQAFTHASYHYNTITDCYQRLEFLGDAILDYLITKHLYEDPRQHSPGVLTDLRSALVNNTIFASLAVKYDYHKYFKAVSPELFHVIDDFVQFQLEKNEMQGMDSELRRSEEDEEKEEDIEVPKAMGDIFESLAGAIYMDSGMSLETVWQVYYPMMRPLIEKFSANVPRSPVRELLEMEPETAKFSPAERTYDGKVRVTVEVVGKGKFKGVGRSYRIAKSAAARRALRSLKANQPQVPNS
# hDicer PPC cassette = molecular target: T1, hDicer PPC cassette; test: EMSA; EMSA: 20 mM Tris-HCl pH 7.4, 100 mM KCl, 30 min on ice; 5% or 10% native PAGE at 4 C in 1x TBE; G-rich oligos folded in 50 mM KCl; details: protein: recombinant, tags: N-terminal 6xHis (pMCSG7), label: 5'-32P
# hDicer [2] = molecular target: T2, hDicer; test: EMSA; 250 nM hDicer; EMSA: 20 mM Tris-HCl pH 7.4, 100 mM KCl, 30 min on ice; 5% or 10% native PAGE at 4 C in 1x TBE; G-rich oligos folded in 50 mM KCl; details: protein: recombinant; label: 5'-32P; G4 dimer of bimolecular G-quadruplexes (PDB 2M18)
binder,measurement,setting,value
GGAGGUUUUGGAGG (structured_RNA) [QU14],binding result,hDicer [1],binds
UCGAAGUAUUCCGCGUACGUG (ssRNA) [LIN21],Kd,hDicer PPC cassette,~46 nM
GGGGUUUUGGGG (structured_RNA) [G4U4G4],Kd,hDicer PPC cassette; G4,~10 nM
B1,Kd,hDicer PPC cassette; hairpin,~205 nM
GGGGTTTTGGGG (structured_DNA) [G4T4G4],Kd,"hDicer PPC cassette; G4 bimolecular, 2 strand copies (PDB 1JPQ)",~369 nM
GGGUUAGGGU (structured_RNA) [TER10],binding result,hDicer [2],binds
